For one data set, the target named is T1, PF4 tetramer (human PF4) (human, UniProt P02776).
T1 construct: platelet factor 4 (PF4), human, wild type, same construct as m1, as the tetramer; Same protein as m1; also called hPF4 tetramer
Description: crystal structure; KKO-Fab (5 mg/ml) mixed with hPF4, on ice overnight; hanging drop, 16 °C, 7% PEG6000, 0.1 M Tris-HCl pH 7.8; 4.10 Å. As to conditions: both partners purified.

Data set [1] deals with T2, wild-type human platelet factor 4 (hPF4) (human, UniProt P02776).
T2 construct: platelet factor 4 (PF4), human, wild type, expressed from plasmid pMT/BiP/V5-His; Probably the mature 70-residue PF4 behind the BiP signal of the vector; also called wtPF4; rPF4
Briefly: ELISA; Immulon 4 HBX plates coated overnight with PF4 or PF4 mutant at 5 ug/ml, blocked with 1% BSA in PBS; antibody in solution; A405. The note with it: both partners purified. A general note: ELISA stands for enzyme-linked immunosorbent assay.

Data set [2] deals with the molecule itself. Briefly: crystal structure; hPF4 (7 mg/ml) with six-fold molar excess fondaparinux in PBS and 0.3 M NaCl; hanging drop, 16 °C, 2% PEG4000, 17% MPD, 0.1 M sodium acetate pH 5.6; 2.50 Å.

B1: KKO-Fab (Fab fragment of the murine monoclonal HIT-like anti-PF4 antibody KKO) (Fab, V domains shown)
VH: VQLQQSGAELVKPGASVKLSCKASGYTFTNYFIYWVKQRPGQGLEWIGEINPRNGDTDFNEKFESRATLTVDKSSSTAYMQLSSLTSEDSAIYYCTRSPYGNNYGFTYWGQGTLVTVSA
VL: DIQMIQSQKFMSTSVGDRVTVTCKASQNVGTNVAWYQQKPGQSPNALIYSASYRYSGVPDRFTGSGSGTDFTLTITNVQSEDLADYFCQQYNSYPLTFGTGTKLDLK
notes: From murine IgG2b kappa KKO
Regarding B1, in the data set with PF4 tetramer (human PF4), the binding result is reported as “binds”.

B2: KKO (murine anti-human PF4 IgG2bκ monoclonal antibody) (antibody, V domains shown)
VH: B1 VH
VL: B1 VL
notes: Fab part as the heavy chain of m3 (PDB 4R97, PDB 4R9Y); as the light chain of m3 (PDB 4R97, PDB 4R9Y); IgG2b kappa, whole IgG; also called HIT antibody KKO; HIT-like antibody KKO; source: purified from conditioned PFHM-II media (protein A-agarose); copies: 2 + 2
Turning to B2, the binding result in data set [1] is listed as “binds”.

B3: wild-type human platelet factor 4 (hPF4) (natural protein)
chain: EAEEDGDLQCLCVKTTSQVRPRHITSLEVIKAGPHCPTAQLIATLKNGRKICLDLQAPLYKKIIKKLLES
notes: platelet factor 4 (PF4), human, wild type, expressed from plasmid pMT/BiP/V5-His; Probably the mature 70-residue PF4 behind the BiP signal of the vector; also called wtPF4; rPF4
Broadly, the stoichiometry N is a count of units in the complex or per binding partner. Regarding B3, the “stoichiometry N” value in data set [2] turned out to be 4.

(Values after article PMC4580983 (Nature Communications, 2015).)
